Assay results: article PMC11117068 (2024)

How the values were obtained:
complement C3b [1] = biological target: T1, complement C3b (UniProt P01024 749-1663; P01024 749-1663); assay: SPR
complement C3b [2] = biological target: T1, complement C3b; assay: SPR; remark: listed apart in the source

T1 sequence (P01024 23-667, chain 1 of 2): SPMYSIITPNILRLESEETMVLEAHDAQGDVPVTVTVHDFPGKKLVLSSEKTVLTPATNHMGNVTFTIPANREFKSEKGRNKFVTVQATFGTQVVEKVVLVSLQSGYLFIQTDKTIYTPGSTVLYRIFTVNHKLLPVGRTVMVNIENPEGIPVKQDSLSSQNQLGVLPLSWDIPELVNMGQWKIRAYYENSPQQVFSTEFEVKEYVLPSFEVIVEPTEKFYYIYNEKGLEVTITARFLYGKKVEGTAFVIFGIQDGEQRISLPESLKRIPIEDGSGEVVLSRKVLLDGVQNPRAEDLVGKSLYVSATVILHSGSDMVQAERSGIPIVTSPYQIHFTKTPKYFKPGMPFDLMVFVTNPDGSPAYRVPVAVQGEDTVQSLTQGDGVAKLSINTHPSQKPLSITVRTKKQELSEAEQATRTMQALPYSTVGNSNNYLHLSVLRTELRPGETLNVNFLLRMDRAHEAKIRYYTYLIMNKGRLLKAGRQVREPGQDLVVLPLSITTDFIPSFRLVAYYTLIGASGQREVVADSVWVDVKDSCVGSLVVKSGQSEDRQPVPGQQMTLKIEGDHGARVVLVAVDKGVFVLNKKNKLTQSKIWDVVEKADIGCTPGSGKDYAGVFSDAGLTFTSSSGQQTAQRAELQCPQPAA
T1 sequence (P01024 749-1663, chain 2 of 2): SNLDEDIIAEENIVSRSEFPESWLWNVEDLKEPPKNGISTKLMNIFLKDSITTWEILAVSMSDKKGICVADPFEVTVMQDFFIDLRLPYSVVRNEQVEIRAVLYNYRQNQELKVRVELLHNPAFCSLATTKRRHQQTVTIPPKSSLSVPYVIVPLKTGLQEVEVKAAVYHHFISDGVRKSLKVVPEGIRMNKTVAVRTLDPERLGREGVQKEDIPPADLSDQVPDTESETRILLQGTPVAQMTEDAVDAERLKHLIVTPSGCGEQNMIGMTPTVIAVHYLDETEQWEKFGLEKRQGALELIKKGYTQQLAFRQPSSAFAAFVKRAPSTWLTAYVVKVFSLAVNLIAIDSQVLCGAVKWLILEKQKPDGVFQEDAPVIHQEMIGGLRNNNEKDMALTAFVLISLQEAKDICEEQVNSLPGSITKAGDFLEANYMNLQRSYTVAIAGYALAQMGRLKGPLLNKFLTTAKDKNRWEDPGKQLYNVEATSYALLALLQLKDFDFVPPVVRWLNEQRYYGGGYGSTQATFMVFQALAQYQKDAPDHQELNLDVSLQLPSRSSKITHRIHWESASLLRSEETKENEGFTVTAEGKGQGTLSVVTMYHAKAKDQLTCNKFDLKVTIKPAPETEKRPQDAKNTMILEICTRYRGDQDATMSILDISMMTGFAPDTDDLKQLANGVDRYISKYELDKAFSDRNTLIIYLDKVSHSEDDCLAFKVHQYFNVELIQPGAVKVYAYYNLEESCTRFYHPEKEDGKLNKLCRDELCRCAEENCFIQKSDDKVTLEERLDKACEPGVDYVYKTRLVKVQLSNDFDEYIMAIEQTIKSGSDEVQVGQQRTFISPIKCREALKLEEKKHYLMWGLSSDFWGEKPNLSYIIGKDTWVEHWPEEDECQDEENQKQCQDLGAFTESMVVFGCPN

Kd (complement C3b [1]): 11.3 nM | koff (complement C3b [2]): 0.0233 s⁻¹
B1: serum-derived human factor H (sd-FH) (natural protein)
chain: EDCNELPPRRNTEILTGSWSDQTYPEGTQAIYKCRPGYRSLGNVIMVCRKGEWVALNPLRKCQKRPCGHPGDTPFGTFTLTGGNVFEYGVKAVYTCNEGYQLLGEINYRECDTDGWTNDIPICEVVKCLPVTAPENGKIVSSAMEPDREYHFGQAVRFVCNSGYKIEGDEEMHCSDDGFWSKEKPKCVEISCKSPDVINGSPISQKIIYKENERFQYKCNMGYEYSERGDAVCTESGWRPLPSCEEKSCDNPYIPNGDYSPLRIKHRTGDEITYQCRNGFYPATRGNTAKCTSTGWIPAPRCTLKPCDYPDIKHGGLYHENMRRPYFPVAVGKYYSYYCDEHFETPSGSYWDHIHCTQDGWSPAVPCLRKCYFPYLENGYNQNYGRKFVQGKSIDVACHPGYALPKAQTTVTCMENGWSPTPRCIRVKTCSKSSIDIENGFISESQYTYALKEKAKYQCKLGYVTADGETSGSITCGKDGWSAQPTCIKSCDIPVFMNARTKNDFTWFKLNDTLDYECHDGYESNTGSTTGSIVCGYNGWSDLPICYERECELPKIDVHLVPDRKKDQYKVGEVLKFSCKPGFTIVGPNSVQCYHFGLSPDLPICKEQVQSCGPPPELLNGNVKEKTKEEYGHSEVVEYYCNPRFLMKGPNKIQCVDGEWTTLPVCIVEESTCGDIPELEHGWAQLSSPPYYYGDSVEFNCSESFTMIGHRSITCIHGVWTQLPQCVAIDKLKKCKSSNLIILEEHLKNKKEFDHNSNIRYRCRGKEGWIHTVCINGRWDPEVNCSMAQIQLCPPPPQIPNSHNMTTTLNYRDGEKVSVLCQENYLIQEGEEITCKDGRWQSIPLCVEKIPCSQPPQIEHGTINSSRSSQESYAHGTKLSYTCEGGFRISEENETTCYMGKWSSPPQCEGLPCKSPPEISHGVVAHMSDSYQYGEEVTYKCFEGFGIDGPAIAKCLGEKWSHPPSCIKTDCLSLPSFENAIPMGEKKDVYKAGEQVTYTCATYYKMDGASNVTCINSRWTGRPTCRDTSCVNPPTVQNAYIVSRQMSKYPSGERVRYQCRSPYEMFGDEEVMCLNGNWTEPPQCKDSTGKCGPPPPIDNGDITSFPLSVYAPASSVEYQCQNLYQLEGNKRITCRNGQWSEPPKCLHPCVISREIMENYNIALRWTAKQKLYSRTGESVEFVCKRGYRLSSRSHTLRTTCWDGKLEYPTCAKR
modifications: native N-linked glycans, diantennary and a small number of triantennary sialylated glycans
